Non-standard residues stand in square brackets, D forms with d. No end group written: not given here. *: point of attachment. Desaminotyrosyl = O=C(CCc1ccc(O)cc1)*; NMeY = CN[C@@H](Cc1ccc(O)cc1)C(=O)O; Agmatine = N=C(N)NCCCCN*; Nle = CCCC[C@H](N)C(=O)O; Orn = NCCC[C@H](N)C(=O)O; Abu = CC[C@H](N)C(=O)O; Ava = NCCCCC(=O)O
T1: GHRH receptor (membrane receptors of human anterior pituitary cells) (human, UniProt Q02643 23-423)
T1 construct: whole, on cells; Native receptor in a membrane fraction of purchased normal human pituitaries, not intact cells; also called hGHRH receptor; human pituitary membrane homogenates
T1 sequence (looked up): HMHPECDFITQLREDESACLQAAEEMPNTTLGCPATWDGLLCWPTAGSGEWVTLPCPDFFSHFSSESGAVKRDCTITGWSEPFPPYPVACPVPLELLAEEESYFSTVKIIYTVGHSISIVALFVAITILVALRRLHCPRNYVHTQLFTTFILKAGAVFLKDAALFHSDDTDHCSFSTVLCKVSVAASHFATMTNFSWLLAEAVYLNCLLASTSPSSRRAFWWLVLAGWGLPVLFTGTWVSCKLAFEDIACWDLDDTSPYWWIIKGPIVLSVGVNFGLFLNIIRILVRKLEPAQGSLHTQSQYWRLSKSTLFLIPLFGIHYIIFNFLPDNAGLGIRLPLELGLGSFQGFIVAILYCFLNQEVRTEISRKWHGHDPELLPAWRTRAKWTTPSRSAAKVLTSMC

T2: GHRH receptor (membrane receptors of human anterior pituitary cells) (human) (UniProt Q02643)
T2 sequence (looked up): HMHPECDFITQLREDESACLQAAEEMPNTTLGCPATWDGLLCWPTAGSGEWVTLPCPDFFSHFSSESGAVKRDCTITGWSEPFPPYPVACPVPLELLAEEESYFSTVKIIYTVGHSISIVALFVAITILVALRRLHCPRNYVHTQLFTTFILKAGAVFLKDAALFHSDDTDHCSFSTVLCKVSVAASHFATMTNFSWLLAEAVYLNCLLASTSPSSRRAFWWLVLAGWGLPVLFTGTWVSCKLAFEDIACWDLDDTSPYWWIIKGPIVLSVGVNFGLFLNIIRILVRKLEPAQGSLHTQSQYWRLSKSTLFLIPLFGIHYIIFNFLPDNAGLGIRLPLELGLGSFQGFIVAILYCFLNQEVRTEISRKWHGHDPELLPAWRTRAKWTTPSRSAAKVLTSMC


Tests used:
[1] = target: T1, GHRH receptor (membrane receptors of …); assay: competition with 125I-JV-1-42, human pituitary membranes
Excerpt: Normal human pituitaries were purchased from the National Hormone and Peptide Program (A. F. Parlow, Los Angeles, County Harbor-UCLA Medical Center, Torrance, Calif.).

[2] = target: T1, GHRH receptor (membrane receptors of …); assay: competition with 125I-[His1,Nle27]hGHRH(1-32)NH2, human pituitary membranes
Excerpt: Normal human pituitary was purchased from the National Hormone and Peptide Program (UCLA Medical Center, Torrance, Calif.).

[3] = target: T2, GHRH receptor (membrane receptors of human anterior pituitary cells) (human); assay: competition with 125I-JV-1-42, human pituitary membranes

Row | Binder | IC50 [1] [nM] | Relative affinity (Binding potency) vs JI-38 [1] [JI-38 = 1] | IC50 [2] [nM] | Relative affinity (Binding potency) compared to JI-38 [2] [JI-38 = 1] | Relative affinity (Binding potency) compared to hGHRH(1-29) [2] | IC50 [3] [nM] | Relative affinity (Binding potency) vs JI-38 [3] [JI-38 = 1]
1 | Ac-[NMeY][dA]DAIFTQSYR[Orn]VL[Abu]QLSAR[Orn]LLQDI[Nle]D[Agmatine] (SMILES CCCC[C@H](NC(=O)[C@@H](NC(=O)[C@H](CC(=O)O)NC(=O)[C@H](CCC(N)=O)NC(=O)[C@H](CC(C)C)NC(=O)[C@H](CC(C)C)NC(=O)[C@H](CCCN)NC(=O)[C@H](CCCNC(=N)N)NC(=O)[C@H](C)NC(=O)[C@H](CO)NC(=O)[C@H](CC(C)C)NC(=O)[C@H](CCC(N)=O)NC(=O)[C@H](CC)NC(=O)[C@H](CC(C)C)NC(=O)[C@@H](NC(=O)[C@H](CCCN)NC(=O)[C@H](CCCNC(=N)N)NC(=O)[C@H](Cc1ccc(O)cc1)NC(=O)[C@H](CO)NC(=O)[C@H](CCC(N)=O)NC(=O)[C@@H](NC(=O)[C@H](Cc1ccccc1)NC(=O)[C@@H](NC(=O)[C@H](C)NC(=O)[C@H](CC(=O)O)NC(=O)[C@@H](C)NC(=O)[C@H](Cc1ccc(O)cc1)N(C)C(C)=O)[C@@H](C)CC)[C@@H](C)O)C(C)C)[C@@H](C)CC)C(=O)N[C@@H](CC(=O)O)C(=O)NCCCCNC(=N)N, also called MR-351; Peptide 20351) | 3.44 | 1.26 | 3.87 | 0.71 | 1.98 hGHRH(1-29)NH2 = 1 |  | 
2 | [NMeY][dA]DAIFTQSYR[Orn]VL[Abu]QLSAR[Orn]LLQDI[Nle]D[Agmatine] (also called Peptide 20361) [P-20361 [N-Me-Tyr^1, D-Ala^2, Gln^8, Orn^12, Abu^15, Orn^21, Nle^27, Asp^28, Agm^29]hGHRH(1-29)NH2] | 0.82 | 5.3 | 1.19 | 2.3 | 6.42 hGHRH(1-29)NH2 = 1 |  | 
3 | [Desaminotyrosyl][dA]DAIFTQSYR[Orn]VL[Abu]QLSAR[Orn]LLQDI[Nle]DR-NHMe (SMILES CCCC[C@H](NC(=O)[C@@H](NC(=O)[C@H](CC(=O)O)NC(=O)[C@H](CCC(N)=O)NC(=O)[C@H](CC(C)C)NC(=O)[C@H](CC(C)C)NC(=O)[C@H](CCCN)NC(=O)[C@H](CCCNC(=N)N)NC(=O)[C@H](C)NC(=O)[C@H](CO)NC(=O)[C@H](CC(C)C)NC(=O)[C@H](CCC(N)=O)NC(=O)[C@H](CC)NC(=O)[C@H](CC(C)C)NC(=O)[C@@H](NC(=O)[C@H](CCCN)NC(=O)[C@H](CCCNC(=N)N)NC(=O)[C@H](Cc1ccc(O)cc1)NC(=O)[C@H](CO)NC(=O)[C@H](CCC(N)=O)NC(=O)[C@@H](NC(=O)[C@H](Cc1ccccc1)NC(=O)[C@@H](NC(=O)[C@H](C)NC(=O)[C@H](CC(=O)O)NC(=O)[C@@H](C)NC(=O)CCc1ccc(O)cc1)[C@@H](C)CC)[C@@H](C)O)C(C)C)[C@@H](C)CC)C(=O)N[C@@H](CC(=O)O)C(=O)N[C@@H](CCCNC(=N)N)C(=O)NC, also called MR-408; MR408) [P-27408 [Dat^1, D-Ala^2, Gln^8, Orn^12, Abu^15, Orn^21, Nle^27, Asp^28]hGHRH(1-29)NH-CH3] | 0.55 | 7.91 | 6.32 | 0.53 | 1.21 hGHRH(1-29)NH2 = 1 |  | 
4 | YADAIFTNSYRKVLGQLSARKLLQDIMSRQ (peptide, from a related filing, N-Me-Tyr^1; Abu^2; Orn^12; Abu^15; Orn^21; Nle^27; Gab^30 (in place of Gln^30); C-terminal -NH2) [P-25503 [N-Me-Tyr^1, Abu^2, Orn^12, Abu^15, Orn^21, Nle^27, Gab^30]hGHRH(1-30)NH2] |  |  |  |  |  | 1.18 | 3.67

Results, then the binder that gave them:

Row | IC50 [1] [nM] | Relative affinity (Binding potency) vs JI-38 [1] [JI-38 = 1] | IC50 [2] [nM] | Relative affinity (Binding potency) compared to JI-38 [2] [JI-38 = 1] | Relative affinity (Binding potency) compared to hGHRH(1-29) [2] | IC50 [3] [nM] | Relative affinity (Binding potency) vs JI-38 [3] [JI-38 = 1] | Binder
5 | 0.16 | 27.2 | 0.74 | 3.69 | 10.3 hGHRH(1-29)NH2 = 1 |  |  | [NMeY][dA]DAIFTQSYR[Orn]VL[Abu]QLSAR[Orn]LLQDI[Nle]DR-NHMe [P-27403 [N-Me-Tyr^1, D-Ala^2, Gln^8, Orn^12, Abu^15, Orn^21, Nle^27, Asp^28]hGHRH(1-29)NH-CH3]
6 |  |  |  |  |  | 3.8 | 1.14 | [NMeY]ADAIFTQSYR[Orn]VL[Abu]QLSAR[Orn]LLQDI[Nle]DR[Ava]-NH2 (peptide, from a related filing, N-terminus assumed; SMILES CCCC[C@H](NC(=O)[C@@H](NC(=O)[C@H](CC(=O)O)NC(=O)[C@H](CCC(N)=O)NC(=O)[C@H](CC(C)C)NC(=O)[C@H](CC(C)C)NC(=O)[C@H](CCCN)NC(=O)[C@H](CCCNC(=N)N)NC(=O)[C@H](C)NC(=O)[C@H](CO)NC(=O)[C@H](CC(C)C)NC(=O)[C@H](CCC(N)=O)NC(=O)[C@H](CC)NC(=O)[C@H](CC(C)C)NC(=O)[C@@H](NC(=O)[C@H](CCCN)NC(=O)[C@H](CCCNC(=N)N)NC(=O)[C@H](Cc1ccc(O)cc1)NC(=O)[C@H](CO)NC(=O)[C@H](CCC(N)=O)NC(=O)[C@@H](NC(=O)[C@H](Cc1ccccc1)NC(=O)[C@@H](NC(=O)[C@H](C)NC(=O)[C@H](CC(=O)O)NC(=O)[C@H](C)NC(=O)[C@H](Cc1ccc(O)cc1)NC)[C@@H](C)CC)[C@@H](C)O)C(C)C)[C@@H](C)CC)C(=O)N[C@@H](CC(=O)O)C(=O)N[C@@H](CCCNC(=N)N)C(=O)NCCCCC(N)=O) [P-22325 [N-Me-Tyr^1, Gln^8, Orn^12, Abu^15, Orn^21, Nle^27, Asp^28, Apa^30]hGHRH(1-30)NH2]

From patent US20140179604A1 (U S A REPRESENTED BY THE DEPARTMENT OF VETERANS AFFAIRS, published 2014)
